How the values were obtained:
[1] = target: PD-1-Fc fusion protein (extracellular region of human PD-1 fused to human Fc) (human); assay: ELISA on coated PD-1-Fc, HRP anti-human kappa
[2] = target: PD-1-Fc fusion protein (extracellular region of human PD-1 fused to human Fc) (human); assay: SPR (Biacore), PD-1-Fc immobilized, antibody as analyte

PD-1-Fc fusion protein (extracellular region of human PD-1 fused to human Fc) (human), sequence (chain, as listed by the source limits assumed): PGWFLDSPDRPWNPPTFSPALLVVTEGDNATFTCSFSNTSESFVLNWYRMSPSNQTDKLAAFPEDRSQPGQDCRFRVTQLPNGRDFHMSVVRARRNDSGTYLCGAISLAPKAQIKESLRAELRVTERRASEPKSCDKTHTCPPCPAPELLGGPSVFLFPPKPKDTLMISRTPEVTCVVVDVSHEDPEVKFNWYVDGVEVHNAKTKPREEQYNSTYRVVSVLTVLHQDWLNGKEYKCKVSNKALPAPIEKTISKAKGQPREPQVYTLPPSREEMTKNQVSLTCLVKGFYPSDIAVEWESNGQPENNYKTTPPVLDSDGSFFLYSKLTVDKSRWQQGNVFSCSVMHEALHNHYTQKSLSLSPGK

EC50 (read off the curve) [1]: 0.04 µg/mL
Kd [2]: 0.0212 nM
Substance: Nivolumab (antibody)
